This assay addresses HLA-A*02:01 (Homo sapiens, UniProt P04439, D140Y/D185E/D98H/E176V/E277Q/G131W/G231S/I119V/I121R/I166T/I218V/L300P/L318F/N151K/N90K/P208A/P217A/Q86G/Q94H/R138H/R169H/T345S). Description: MHC binding assay (UV-ligand exchange, ELISA, peptide exchange yield). The note with it: binding of HLA-class I restricted peptides to HLA-A*02:01. The text has this: Candidate peptides for T cell based therapies according to the present invention were further tested for their MHC binding capacity (affinity). The individual peptide-MHC complexes were produced by UV-ligand exchange, where a UV-sensitive peptide is cleaved upon UV-irradiation, and exchanged with the peptide of interest as analyzed. Only peptide candidates that can effectively bind and stabilize the peptide-receptive MHC molecules prevent dissociation of the MHC complexes. To determine the yield of the exchange reaction, an ELISA was performed based on the detection of the light chain ([…]) of stabilized MHC complexes. The assay was performed as generally described in Rodenko et al. (Rodenko et al., 2006).
96 well MAXISorp plates (NUNC) were coated over night with 2-ug/ml streptavidin in PBS at room temperature, washed 4× and blocked for 1 h at 37° C. in 2% BSA containing blocking buffer. […] Peptide-MHC monomers of the UV-exchange reaction were diluted 100 fold in blocking buffer. Samples were incubated for 1 h at 37° C., washed four times, incubated with 2-ug/ml HRP conjugated anti-β2m for 1 h at 37° C., washed again and detected with TMB solution that is stopped with […]. Absorption was measured at 450 nm. Candidate peptides that show a high exchange yield (preferably higher than 50%, most preferred higher than 75%) are generally preferred for a generation and production of antibodies or fragments thereof, and/or T cell receptors or fragments thereof, as they show sufficient avidity to the MHC molecules and prevent dissociation of the MHC complexes.
Consider “120 (ALLGIPLTLV; listed as Homo sapiens) [compound 120]”, for which the “Peptide exchange (MHC class I binding score, peptide exchange yield)” value (from here on “Peptide exchange”) is “″+++″ (≥50% = +++)”. Regarding “121 (GVVDPRAISVL; listed as Homo sapiens) [compound 121]”, the “Peptide exchange” value is listed as “″++″ (≥20% = ++)”.

For the substance “122 (FLLAEDDIYL; listed as Homo sapiens) [compound 122]”, the “Peptide exchange” value is recorded as “″+++″ (≥50% = +++)”. In the case of “123 (NLWDLTDASVV; listed as Homo sapiens) [compound 123]”, the “Peptide exchange” value is given as “″+++″ (≥50% = +++)”. Consider “124 (ALYETELADA; listed as Homo sapiens) [compound 124]”, for which the “Peptide exchange” value is reported as “″++″ (≥20% = ++)”. As for “125 (VQIHQVAQV; listed as Homo sapiens) [compound 125]”, the “Peptide exchange” value was “″+++″ (≥50% = +++)”. The value for “126 (VLAYFLPEA; listed as Homo sapiens) [compound 126]” was “″++++″ (≥75% = ++++)”; that for “127 (KIGDEPPKV; listed as Homo sapiens) [compound 127]” was “″++″ (≥20% = ++)”; that for “128 (YLFDDPLSAV; listed as Homo sapiens) [compound 128]” was “″++″ (≥20% = ++)”. Regarding “129 (GLLDGGVDILL; listed as Homo sapiens) [compound 129]”, the “Peptide exchange” value was “″+++″ (≥50% = +++)”. Consider “130 (FLWNGEDSALL; listed as Homo sapiens) [compound 130]”, for which the “Peptide exchange” value is listed as “″+++″ (≥50% = +++)”. In the case of “131 (FVPPVTVFPSL; listed as Homo sapiens) [compound 131]”, the “Peptide exchange” value was “″++″ (≥20% = ++)”. With “132 (LLVEQPPLAGV; listed as Homo sapiens) [compound 132]”, the “Peptide exchange” value is reported as “″+++″ (≥50% = +++)”.

On to “133 (KVLSNIHTV; listed as Homo sapiens) [compound 133]”, for which the “Peptide exchange” value is on record as “″++″ (≥20% = ++)”. For “134 (YLQELIFSV; listed as Homo sapiens) [compound 134]” the value was “″+++″ (≥50% = +++)”; for “135 (ALSEVDFQL; listed as Homo sapiens) [compound 135]”, “″+++″ (≥50% = +++)”.

On to “136 (YLADPSNLFVV; listed as Homo sapiens) [compound 136]”, for which the “Peptide exchange” value is “″+++″ (≥50% = +++)”. For the substance “137 (TLVLTLPTV; listed as Homo sapiens) [compound 137]”, the “Peptide exchange” value was “″++++″ (≥75% = ++++)”. For the substance “138 (YQYPRAILSV; listed as Homo sapiens) [compound 138]”, the “Peptide exchange” value is “″+++″ (≥50% = +++)”. For “139 (SVMEVNSGIYRV; listed as Homo sapiens) [compound 139]” the value was “″+++″ (≥50% = +++)”. Turning to “140 (YMDAPKAAL; listed as Homo sapiens) [compound 140]”, the “Peptide exchange” value was “″++″ (≥20% = ++)”.

Consider “142 (FLFATPVFI; listed as Homo sapiens) [compound 142]”, for which the “Peptide exchange” value was “″+++″ (≥50% = +++)”. For the substance “144 (YIMEPSIFNTL; listed as Homo sapiens) [compound 144]”, the “Peptide exchange” value is reported as “″+++″ (≥50% = +++)”. On to “145 (FLATSGTLAGI; listed as Homo sapiens) [compound 145]”, for which the “Peptide exchange” value is “″++″ (≥20% = ++)”. “146 (SLATAGDGLIEL; listed as Homo sapiens) [compound 146]”: the “Peptide exchange” value is on record as “″++″ (≥20% = ++)”. The value for “147 (SLLEAVSFL; listed as Homo sapiens) [compound 147]” was “″+++″ (≥50% = +++)”; that for “148 (ALNPEIVSV; listed as Homo sapiens) [compound 148]” was “″++″ (≥20% = ++)”. For “149 (NLLELFVQL; listed as Homo sapiens) [compound 149]” the value was “″+++″ (≥50% = +++)”. The value for “151 (KILQQLVTL; listed as Homo sapiens) [compound 151]” was “″+++″ (≥50% = +++)”; that for “152 (ILFEDIFDV; listed as Homo sapiens) [compound 152]” was “″+++″ (≥50% = +++)”. Regarding “153 (FLIANVLYL; listed as Homo sapiens) [compound 153]”, the “Peptide exchange” value was “″+″ (≥10% = +)”.

As to “154 (ALDDGTPAL; listed as Homo sapiens) [compound 154]”, the “Peptide exchange” value is “″++″ (≥20% = ++)”.

For “155 (RVANLHFPSV; listed as Homo sapiens) [compound 155]”, the “Peptide exchange” value was “″+++″ (≥50% = +++)”.

Take “157 (SLNDEVPEV; listed as Homo sapiens) [compound 157]”: the “Peptide exchange” value is recorded as “″++″ (≥20% = ++)”. On to “158 (KLFDVDEDGYI; listed as Homo sapiens) [compound 158]”, for which the “Peptide exchange” value is given as “″+++″ (≥50% = +++)”. For “159 (GLVGNPLPSV; listed as Homo sapiens) [compound 159]” the value was “″++++″ (≥75% = ++++)”; for “160 (FLFDEEIEQI; listed as Homo sapiens) [compound 160]”, “″+++″ (≥50% = +++)”; for “161 (ALLEGVNTV; listed as Homo sapiens) [compound 161]”, “″+++″ (≥50% = +++)”. As to “162 (YQQAQVPSV; listed as Homo sapiens) [compound 162]”, the “Peptide exchange” value is recorded as “″+++″ (≥50% = +++)”. The value for “163 (ALDEMGDLLQL; listed as Homo sapiens) [compound 163]” was “″+++″ (≥50% = +++)”. Consider “164 (ALLPQPKNLTV; listed as Homo sapiens) [compound 164]”, for which the “Peptide exchange” value was “″+++″ (≥50% = +++)”. For “165 (SLLDEIRAV; listed as Homo sapiens) [compound 165]” the value was “″+++″ (≥50% = +++)”; for “166 (YLNHLEPPV; listed as Homo sapiens) [compound 166]”, “″+++″ (≥50% = +++)”; for “167 (KVLEVTEEFGV; listed as Homo sapiens) [compound 167]”, “″+++″ (≥50% = +++)”. Take “168 (KILDADIQL; listed as Homo sapiens) [compound 168]”: the “Peptide exchange” value is listed as “″++++″ (≥75% = ++++)”. For “169 (NLPEYLPFV; listed as Homo sapiens) [compound 169]” the value was “″+++″ (≥50% = +++)”; for “170 (RLQETLSAA; listed as Homo sapiens) [compound 170]”, “″+++″ (≥50% = +++)”. For “171 (LLLPLQILL; listed as Homo sapiens) [compound 171]” the value was “″+++″ (≥50% = +++)”; for “172 (VLYSYTIITV; listed as Homo sapiens) [compound 172]”, “″++″ (≥20% = ++)”; for “173 (LLDSASAGLYL; listed as Homo sapiens) [compound 173]”, “″+++″ (≥50% = +++)”. For “174 (ALAQYLITA; listed as Homo sapiens) [compound 174]” the value was “″+++″ (≥50% = +++)”; for “175 (YLFENISQL; listed as Homo sapiens) [compound 175]”, “″+++″ (≥50% = +++)”. In the case of “176 (YLMEGSYNKVFL; listed as Homo sapiens) [compound 176]”, the “Peptide exchange” value is listed as “″++″ (≥20% = ++)”. For “177 (YLLPEEYTSTL; listed as Homo sapiens) [compound 177]” the value was “″++++″ (≥75% = ++++)”; for “178 (ALTEIAFVV; listed as Homo sapiens) [compound 178]”, “″++++″ (≥75% = ++++)”; for “179 (KVLNELYTV; listed as Homo sapiens) [compound 179]”, “″+++″ (≥50% = +++)”.
